Experiment: soluble on expression in E. coli; label from the status in PepcDB or PDB records

Sequence | soluble on expression in E. coli
MELKDRIKAARKHAHLSQVQLAQAVGMTQTSISDLERGKSRATSFVAQIAGACGVNPLWLAEGRGEMLAERGQANAGPNASWLGAVESWDDETPLDADEIELPFYKEIELSGGKGSTVILQTGGRKLRFGKYTLRKKNIDPASAACVTVSGNSMEPVLPDGSTVGVDTSARTIKDGDMYAFDHDGQLRVKLLYRLPGGGLRIRSFNSDEHPDERYEPQEAAEHINVIGRVFWYSVLV | not soluble
MKTIIFALNDHSPKYKQIYEKLKSLIERGDIQANEPLPSIRQLAESLNVSRNTTLMAYEQLAAEGYIRAEKRKGYFANEVEPLFIPKARISARQPAREAAAPVVVDFARRCR | not soluble
SASASTQPAALSAEQAKVVLAEVIQAFSAPENAVRMDEARDNACNDMGKMLQFVLPVATQIQQEVIKAYGFSCDGEGVLKFARLVKSYEAQDPEIASLSGKLKALFLPPMTLPPHGPAAGGSVAAS | soluble
MYHLKKILEVKQVNKTYSMDGNANYHVLKNIDLEVYEGEFVSVMGPSGSGKSTLLYNISGMDQMSSGSVKIDSKELSCMKEEELAKLRLTEIGFIFQQSNLLRNLNLFDNIILSAYLAKCESKKIVNKRALELMENMGISDIASHYITEASGGQLQRVSICRALINNPNIIFADEPTGALNLKSTEEVMQILLNINRDGTTIMLVTHDVKVAAKTERILFMADGEIVSEIQLGKLRNDDLKAREEKLLNWLAVLGF | not soluble
MGSDKIHHHHHHMESVGDVLKRQPSRFYYQDLVQKIMKDPDVAAFIQQESLTPKELNRSISKFNQYITERDKFLRGDTDYIAKGYKPILVKNHGYADVSYEETPELIAAEKEAAIKNRLKLINLPASLKKASLAQVDLDDLGRLPVFEKLLAFVEQYPAIRKGLYLYGDFGVGKSFMVAALAHDLSEKRGVSSTLLHYPSFVIDVKNAISDGNVKTLVDEIKLSEVLILDDIGAEQSTVWVRDEILQVILQYRMQENLPTFFTSNFNFEDLEKHFAKVKHGNDETWEARRVMERIRYLAEETRLEGVNRR | not soluble
AIASGAYDESAMSDETTDSFWEVGNYKRTVKRIEDGHRLCNDMMSCIQERAKIEKAYSQQLTDWSKRWRQLVERGPQYGTLERAWLAVMTEAEKVSELHQEVKNNLLNEDLEKVKNWQKDAYHKQMMGGFKETKEADEGFRKAQKPWAKKLKELETAKKTYHMACKEEKIASAREANSKGEASVTTDQQKKLQEKVDKCKNDVQKAKEKYEKSLDELNKCTPQYMENMEVVFDQCQQFEEKRLNFLREVLLDTKRHLNLTESQSYATVYRELERTIVSASAQEDLKWFSSVHGPGMHMNWPQFEEFNPDLSHAISKKEKVKRNHDGVTLTQVTHGAEHGTPQTGDRGSVSSYEKNQQYSAEWSDDEQPPTAAQSASETNGGNPFEEDSKGVRVRALYDYEGQEQDELTFKAGDELTKLEDEDEQGWCKGRLDSGQLGLYPANYVEPV | soluble
MGSDKIHHHHHHMPTAAAQENIRWEECPPQVDIASAQCGSIDVPMHYSDPSLGDISVGFVKVPAQGEKHGTIFGNSGGPGGDAYSFFGSQSMNWPEAMYQNYDLVAVQPRGMVGSTPVNCDNIAPGYDFLSLLTREGAFVKESCEIGTPGYTSSLTTDNTANDWERVRQALGDDKISIFGLSYGTYLGSVYATRYPQHTDKVVLDSAMAPSLAWNGIMASQEQGYKNSLNDFFTWVAENNDTYGLGTTPLAVYQNWSNKIVAETGTNPTVAPPPAQVGDVPPAFAWAGQAGADMMTATNPTSVQLQGLATQLLNPGSNQSLSPLLNVTRAYIPQPSTWPMLAGAISGQTPIPDVTDTGDDPYVIESINASVNMQRMVMCNENTVAPDPVAMARMAWTSMVTGDVFDIYSVKFSSGQACSGITPTSGRQPTDGSQLAVQPLLLQGTSDPQTPYWTHNELADAMNAHVVTVNGPGHGQSIGGTNQAINDIVVDYLRTGHTDATWVEGNTPTPITAG | not soluble
MGSDKIHHHHHHMPRGPTKKKTEDTTSQSLESKLWATADKLRGHLDAADYKHVVLGLIFLKYISDRFAQRHEEIIREEAGTYAAEDRDEYTAEGVFWVPASSRWAVVQTAAKQPDIGKRIDGAMTDIERENPHLKNILPKGYARPTLDQRRLGELVDLIGTIGLGTAEHQARDTLGRVYEYFLGRFASAEGKRGGEFYTPASVVRTLVTMLAPYKGRIYDPCCGSGGMFVQSEKFIEAHGGKVGDISVYGEESNPNTWKLALMNLAIRGIEADLGPEAADTFHKDLHPDLRADYILANPPFNISDWGGDLLRDDKRWQYGIPPTGNANFAWVQHMVHHLAPYGIAGFVLANGSMSSNTSGEGEIRKNLIEADLVDCMVAMPGQLFYSTQIPVCLWFLAKNRDDGRGMTGKELFERTGEVLFIDARNMGFMADRTHRELTDEDIQKIADTYHNWRGDGDGEYADIPGFCKAASLDDIRKNGHVLTPGRYVGAAAKDDDGEPFEEKMDRLTKELSAQLAEGRRLEDEMLKNFRVLGYEL | not soluble
MGSDKIHHHHHHMSKVVKFGGSSVANSEQFKKVKQIILADPDRKYVVTSACGKSGQEDHKVTDLLYLCAAHITYDVSYESIFQSIVDKYMEIKRSLGLKIDLAGEFAKIRQNMAQNLNLDYLVSRGEYLTGLCLAEYLDADFRDASQVIRFHYDGSIDLDKSQELLKAQVDPGRRVVIPGFYGSLPNGVIKVMSRGGSDITGSIVANAFDVDVYENWTDVSGFYVADPRIIKDPVQIPRVTYSELRQMSYMGANVLHDDAVFPVRQKNIPINVRNTNHPENPGTMIMNDCSELDAQERPHVITGITGKQDFTVITMVKSHVSAEAGFLRKVLAVFEKFQISIESVPVTVDTFSIVVQTKKIERYLYEIVAELQQDLHLDDIQVESQQAMLAVVGRAMRQMPGMSGKILSTLGDQQINIRTINQACDEQSIVIGVNNQDLVPAIKAIYQQFISEERVER | not soluble
GPGSMCTAHSQSYLPLPPPTRTSTHTLTANVTQLRCRRRCVTPAIRTSRPPPAVAPPAALPAAHRPCICLLLHDLSPLPLLVLPPSLPLCAAPLHAAAHLPSHRTPSRPPMSAYHSSNPVEARRAECARLQAKYPGHVAVVVEAAEKAGSKVHFLALPRDATVAELEAAVRQALGTSAKKVTLAIEGSTPAVTATVGDIADACKRDDGFLYVSVRTEQAMGGIAGLCFASDSGGI | not soluble
MGSDKIHHHHHHMKQQYTATVVMATYNGEKNILEQLDSLKNQSKKIDEVLIWDDCSTDSTVKIIENFISENKLGETWHLQINTENLGWRKNFFNLLNAATKEIVFTCDQDDIWDASKIEVMCEAFANTDVKVLVSDYTELVEPGGLAEELKKIDSVKLPNQKAEQIIFNENNLFLRRPGCVYAIRKSFIANVNLYASEMENPVHDMAMWGSSLLSDGLYIVREELIRWRKHGQSSFKKEIDLAKKQNHFEERLNTLRRRLQRTEAAKNYLNNQPHVEEFEYKDKVLSNLIKELNMRVSLLERKKIIPILCAFFKYHHKFYFSTDIYHIMKYKIRK | not soluble
MKVRFLQISDLHFQFQNYDTIVMRDKLLDFIEVLRRESDFDFLLLTGDIAHKGDVYNEDVKEYLNGIIKSMGLSKNNVHLVPGNHDISRDMTRTLLIDSIMKSPNPSEMLDKLDQKATNILVEGQRKFFDFYEDFMGVKYPEEDLHFLYQSEKYNVLSINTCLLSDKKGEEGTLLTAQMKLYKAIRKMNKEKNKGKVLNIAIGHHTLGCIESSERESIKAHFDDYFIDLYLAGHVHDSSFNITANTNENPFLELVSGAIIKDEYATPEFISVDVNLDNGETEVTYYIWNTEYKYWSKNNQGGRRLQEGKLNYKINRLESLIEKEIEDNDDKIDEDEFKSFIIDFHEYRESYKTFTSNFDNQIGLDKKFYDMKSGETFKRKFDSYSEYFGVINHIMDSTSYVSADKKELIAETIVDKYLEFHNQYNNGDEIFVKIVNEIYLECHSVLPYSKALTKKYIKILTCWCIYECEIFNDNKRSVKNDLEHHHHHH | soluble
MGSDKIHHHHHHMTPIPFYVPVGNECELFETAWQRRLPLLLKGPTGCGKTRFVTHMAARLQRPLFTVSCHDDLTAADLTGRFLIKGGETVWVDGPLTRAIREGGICYLDEIVEARKDVTVVLHPLTDDRRMLPLERTNEILHAPDTFMLVVSYNPGYQNILKSLKPSTRQRFVALSFNFPPPEIELEIIASESGLARDRCTALVNLATRLRLLKDVDLEESVSTRLLVYCATLMAAGLDPYQAAQAALVEPLSDETEVQQGLLELIHATFG | not soluble
DYKDDDDKLAAAQYPVVNTNYGKIRGLRTPLPNEILGPVEQYLGVPYASPPTGERRFQPPEPPSSWTGIRNTTQFAAVCPQHLDERSLLHDMLPIWFTANLDTLMTYVQDQNEDCLYLNIYVPTEDDIHDQNSKKPVMVYIHGGSYMEGTGNMIDGSILASYGNVIVITINYRLGILGFLSTGDQAAKGNYGLLDQIQALRWIEENVGAFGGDPKRVTIFGSGAGASCVSLLTLSHYSEGLFQKAIIQSGTALSSWAVNYQPAKYTRILADKVGCNMLDTTDMVECLRNKNYKELIQQTITPATYHIAFGPVIDGDVIPDDPQILMEQGEFLNYDIMLGVNQGEGLKFVDGIVDNEDGVTPNDFDFSVSNFVDNLYGYPEGKDTLRETIKFMYTDWADKENPETRRKTLVALFTDHQWVAPAVATADLHAQYGSPTYFYAFYHHCQSEMKPSWADSAHGDEVPYVFGIPMIGPTELFSCNFSKNDVMLSAVVMTYWTNFAKTGDPNQPVPQDTKFIHTKPNRFEEVAWSRYNPKDQLYLHIGLKPRVRDHYRATKVAFWLELVPHLHNLNEIFQYVSTTTKVPPPDMT | soluble
MSRSTFSILPYINRQKVKADGTANILCRITVDGKSAAISTGISCTPQEWNAKKGEVRNARDNGRLASFLDEIKDKYNALLVANGIITVEMLKAVLKDKDTTGRFLLSFGDTIVEWYRTAKARQTFLHKRTWQKNLRDFVHSLDKDDIAFEDIDENFGEEYKLFLKRDQGRIDSYVNHCLLWLNMLMYKAVDRSIIRFNPIAKIGYEKKAAPKMTHISKADFIKMLSTPMADERTELARRCFIFASLTSLSYIDVKKLYPRHISENSEGRKFIRKEREKTGVEFFVPLHPIAEKILSLYNTTDDSKPVFPLGEKKDIYLDVHTLGMVLGISNKLGFHASRHTFGVLMLNEDIPIGSIAKMMGHADITSTQVYAQVTEQKISNDMDKLIAKREMNRLSNEKTIGK | not soluble
MGSDKIHHHHHHMTLLDKDLVSIQEVRTLVRRSKVAQEKLSKMSQEQIDKIVKAVVDAAFNNATKLAKMANEETGFGKWEDKVIKNTFASMGVYETLKNTKTIGIIGEDKEANTIDIATPVGVVAGLIPSTNPTSTVIYKTIISLKAGNTIVFSPHPNAKNCILETVNIISDAAIKAGAPEDSILCITNPSIVGTNELMKHKDTNLILATGGEAMVRAAYSSGTPAIGVGPGNGPAFIDKSANVKLAIKRIIDSKTFDNGVICASEQSIVIEKSMEETVLKELKNQGAYVLNEEESERLAKFILRANGTMNPQIVGKSVEVIANLADLTNVPKNTKVLVARENKVGHNVAYSREKLTPILAFYVEENVEAIMNRCREILLNEGAGHTFSMHVNDEELVKRFALNMPVSRILVNTPSALGGIGASTNLVPALTLGCGAIGGSSTSNNIGPLDLINVKRVAYGIKEIEELGRDKSQVEKSMFDSMDKEELINLLVQKLFKELA | not soluble
MPAIEVIRSAKRTKTVQARIVDGQIQVRIPARMSKAEEEKAVGEIVAKLKRRTQSAVSSDADLIERAHKLNKTVLEGRARVESIRWVSNQKGRWGSCTVATAEIRISDRLKHVPDYVLDAVLVHELTHTFIAGHSAEFWEWADKTPLAERAKGYLEAYQRWGLEHHHHHH | soluble
MGSDKIHHHHHHMDCSKASTDTEKMICASSRLQQLDAVLNKAYQGYVKKADKAQARQEQRTWLAERDRCKDDVCLGNEMVSRIQALSGSENISVITQASGQWDFILSVATCNLDSSYSTCEGPGTLDIFKKGSGDLFQRITMENLFIELNNKGEVTANLVEVYGENNSGLVIDDANFDHHADIMLRNGNNGAYGGPSYDVYLFDVEKQQFTQNAPLTELASSNLGLFDIDEKSKTITTFTKSGCCWHQWSAYQMANNKPVLIVETTEAYSEEKQAMVATTRELVSGKWKVKEEIVKIDEQ | not soluble
